Publication PMC10960667 (Molecular cell, 2024)

Molecular target: T1, recombinant full-length IκBζ wild type with 8×His-MBP tag (human, UniProt Q9BYH8-1 1-718)
T1 sequence (looked up): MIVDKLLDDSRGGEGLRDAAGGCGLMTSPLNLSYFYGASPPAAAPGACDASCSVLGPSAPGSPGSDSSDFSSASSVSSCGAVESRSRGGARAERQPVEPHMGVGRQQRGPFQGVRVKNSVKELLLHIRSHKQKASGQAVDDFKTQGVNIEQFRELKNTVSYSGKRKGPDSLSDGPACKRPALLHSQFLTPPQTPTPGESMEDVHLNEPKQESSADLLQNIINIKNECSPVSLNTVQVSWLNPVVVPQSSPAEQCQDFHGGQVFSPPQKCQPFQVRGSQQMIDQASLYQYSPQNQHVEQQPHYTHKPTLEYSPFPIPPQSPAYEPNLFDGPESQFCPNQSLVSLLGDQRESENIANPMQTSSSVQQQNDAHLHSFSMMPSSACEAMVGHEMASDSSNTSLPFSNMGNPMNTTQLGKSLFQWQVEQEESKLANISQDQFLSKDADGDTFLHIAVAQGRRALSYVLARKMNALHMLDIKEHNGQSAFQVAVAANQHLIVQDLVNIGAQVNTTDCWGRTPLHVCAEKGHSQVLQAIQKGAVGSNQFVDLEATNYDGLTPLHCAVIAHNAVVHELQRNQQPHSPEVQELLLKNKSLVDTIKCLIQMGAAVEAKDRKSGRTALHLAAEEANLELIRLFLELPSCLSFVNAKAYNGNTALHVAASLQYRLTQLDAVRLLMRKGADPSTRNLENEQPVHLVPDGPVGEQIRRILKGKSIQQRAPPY
Assay: pull-down

binding result: binds
B1: recombinant full-length OCT6 with N-terminal 6×His-ECFP tag (natural protein, UniProt Q03052 1-451, looked up)
chain: MATTAQYLPRGPGGGAGGTGPLMHPDAAAAAAAAAAAERLHAGAAYREVQKLMHHEWLGAGAGHPVGLAHPQWLPTGGGGGGDWAGGPHLEHGKAGGGGTGRADDGGGGGGFHARLVHQGAAHAGAAWAQGSTAHHLGPAMSPSPGASGGHQPQPLGLYAQAAYPGGGGGGLAGMLAAGGGGAGPGLHHALHEDGHEAQLEPSPPPHLGAHGHAHGHAHAGGLHAAAAHLHPGAGGGGSSVGEHSDEDAPSSDDLEQFAKQFKQRRIKLGFTQADVGLALGTLYGNVFSQTTICRFEALQLSFKNMCKLKPLLNKWLEETDSSSGSPTNLDKIAAQGRKRKKRTSIEVGVKGALESHFLKCPKPSAHEITGLADSLQLEKEVVRVWFCNRRQKEKRMTPAAGAGHPPMDDVYAPGELGPGGGGASPPSAPPPPPPAALHHHHHHTLPGSVQ
